Laboratory results: article PMC3433420, “Comprehensive Binary Interaction Mapping of SH2 Domains via Fluorescence Polarization Reveals Novel Functional Diversification of ErbB Receptors” (PLoS ONE, 2012)
Non-standard residues stand in square brackets, D forms with d. No end group written: not given here. pY = N[C@@H](Cc1ccc(OP(=O)(O)O)cc1)C(=O)O; Rhodamine = not defined here; rhodamine = not defined here

Key:
Conditions in all cases: both partners purified
[1] = target: T1, PIK3R3 C-terminal SH2 domain (human); assay: SPR; Biacore 3000; 6X His SH2 proteins held on a Ni-NTA chip, dye-free peptides in solution, equilibrium
T1 construct: PIK3R3, human; source: bacterial expression, purified

[2] = target: T2, PIK3R1 N-terminal SH2 domain (human); assay: fluorescence polarisation; saturation binding in solution: rhodamine peptide fixed at 10 nM, protein titrated 0.002-10 uM, 20 min at room temperature; assay buffer 20 mM HEPES, 100 mM KCl, 0.1% Tween-20, 5 mM DTT, pH 7.8; apparent KD
T2 construct: PIK3R1, human; source: bacterial expression, purified

[3] = target: T1, PIK3R3 C-terminal SH2 domain; assay: as above
[4] = target: T3, PLCG1 C-terminal SH2 domain (human); assay: as above
T3 construct: PLCG1, human; source: bacterial expression, purified
T3 sequence (P19174 whole entry, looked up): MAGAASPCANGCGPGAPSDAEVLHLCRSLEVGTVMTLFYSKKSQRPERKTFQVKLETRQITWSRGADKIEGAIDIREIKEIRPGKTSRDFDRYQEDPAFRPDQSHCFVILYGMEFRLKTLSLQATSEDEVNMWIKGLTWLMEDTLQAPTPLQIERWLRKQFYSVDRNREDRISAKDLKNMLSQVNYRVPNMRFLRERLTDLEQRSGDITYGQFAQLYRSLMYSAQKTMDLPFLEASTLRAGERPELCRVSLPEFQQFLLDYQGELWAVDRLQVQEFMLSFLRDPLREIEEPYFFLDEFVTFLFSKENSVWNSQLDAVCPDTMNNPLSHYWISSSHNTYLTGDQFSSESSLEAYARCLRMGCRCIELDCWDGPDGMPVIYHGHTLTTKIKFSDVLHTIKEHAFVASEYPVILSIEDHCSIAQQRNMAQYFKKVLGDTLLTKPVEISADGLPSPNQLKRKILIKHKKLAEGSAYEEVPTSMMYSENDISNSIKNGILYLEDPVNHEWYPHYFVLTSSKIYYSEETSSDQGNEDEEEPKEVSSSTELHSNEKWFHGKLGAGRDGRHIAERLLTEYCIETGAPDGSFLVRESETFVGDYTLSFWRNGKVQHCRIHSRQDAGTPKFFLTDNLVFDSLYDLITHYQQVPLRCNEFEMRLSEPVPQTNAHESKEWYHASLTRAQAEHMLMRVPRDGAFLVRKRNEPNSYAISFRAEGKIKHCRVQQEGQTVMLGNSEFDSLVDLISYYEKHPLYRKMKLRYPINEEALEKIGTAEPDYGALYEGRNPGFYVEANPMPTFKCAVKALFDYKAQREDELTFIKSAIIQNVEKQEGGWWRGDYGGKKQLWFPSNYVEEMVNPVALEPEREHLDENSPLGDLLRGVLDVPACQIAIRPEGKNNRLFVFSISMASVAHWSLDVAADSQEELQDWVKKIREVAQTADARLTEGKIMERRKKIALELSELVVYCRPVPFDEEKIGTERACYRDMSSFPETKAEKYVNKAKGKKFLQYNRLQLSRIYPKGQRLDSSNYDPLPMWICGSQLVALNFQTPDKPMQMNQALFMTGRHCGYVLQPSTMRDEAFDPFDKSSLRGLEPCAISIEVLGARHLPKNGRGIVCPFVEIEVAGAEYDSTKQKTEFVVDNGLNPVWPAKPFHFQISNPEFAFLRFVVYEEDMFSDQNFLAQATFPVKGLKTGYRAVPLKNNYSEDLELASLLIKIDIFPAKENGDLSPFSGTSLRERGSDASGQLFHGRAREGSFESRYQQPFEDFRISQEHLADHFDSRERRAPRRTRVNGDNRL

[5] = target: T3, PLCG1 C-terminal SH2 domain; assay: SPR; Biacore 3000; 6X His SH2 proteins held on a Ni-NTA chip, dye-free peptides in solution, equilibrium
GRB2 SH2 domain = target: T4, GRB2 SH2 domain (human, UniProt P62993 60-152); assay: fluorescence polarisation; competition: rhodamine peptide 10 nM, protein at four times its KD, unlabeled competitor peptide in 11 serial 1:3 dilutions; Ki from IC50, one-site model
T4 construct: GRB2, human; source: bacterial expression, purified

PTK6 SH2 domain [6] = target: T5, PTK6 SH2 domain (human, UniProt Q13882 78-170); assay: fluorescence polarisation; saturation binding in solution: rhodamine peptide fixed at 10 nM, protein titrated 0.002-10 uM, 20 min at room temperature; assay buffer 20 mM HEPES, 100 mM KCl, 0.1% Tween-20, 5 mM DTT, pH 7.8; apparent KD
T5 construct: PTK6, human; source: bacterial expression, purified
T5 sequence (Q13882 78-170): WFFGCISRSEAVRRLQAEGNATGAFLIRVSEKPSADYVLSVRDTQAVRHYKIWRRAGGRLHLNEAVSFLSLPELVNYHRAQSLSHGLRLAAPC

[7] = target: T2, PIK3R1 N-terminal SH2 domain; assay: SPR; Biacore 3000; 6X His SH2 proteins held on a Ni-NTA chip, dye-free peptides in solution, equilibrium
PTK6 SH2 domain [8] = target: T6, PTK6 SH2 domain (human, UniProt Q13882 78-170); assay: fluorescence polarisation; competition; fluorescent peptide 10 nM, protein at four times the calculated KD, unlabeled competitor peptide at 11 serial 1:3 dilutions; at least 20 minutes; IC50 from a four-parameter log-logistic fit, one-site competition model
T6 construct: PTK6, human; SH2 domain; source: bacterial expression culture, purified
T6 sequence (Q13882 78-170): as above

PTK6 SH2 domain [9] = target: T6, PTK6 SH2 domain; assay: fluorescence polarisation; saturation binding in solution; rhodamine-labeled peptide fixed at 10 nM, protein titrated 0.002-10 µM (twelve two-fold dilutions); 20 minutes at room temperature in the dark; assay buffer 20 mM HEPES, 100 mM KCl, 0.1% Tween-20, 5 mM DTT, pH 7.8; apparent KD; assay detection threshold of 20 µM
GRB7 SH2 domain = target: T7, GRB7 SH2 domain (human, UniProt Q14451 431-527); assay: fluorescence polarisation; competition: rhodamine peptide 10 nM, protein at four times its KD, unlabeled competitor peptide in 11 serial 1:3 dilutions; Ki from IC50, one-site model
T7 construct: GRB7, human; source: bacterial expression, purified
T7 sequence (Q14451 431-527): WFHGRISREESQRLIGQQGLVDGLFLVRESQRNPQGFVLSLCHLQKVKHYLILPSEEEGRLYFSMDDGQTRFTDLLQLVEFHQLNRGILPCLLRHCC

T4 sequence (P62993 60-152): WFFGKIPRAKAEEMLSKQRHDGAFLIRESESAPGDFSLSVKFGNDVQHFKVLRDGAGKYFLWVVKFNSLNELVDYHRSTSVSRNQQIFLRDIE

Binder: TNHI[pY]SNLANCS [KIT pY936 phosphopeptide, dye-free]
- Kd [1]: 4 nM

Binder: Rhodamine-QEAN[pY]VPMTPGTD (reading uncertain) [Gab1 pY472 phosphopeptide, rhodamine-labelled]
- Kd [2]: 2330 nM
- Kd [3]: 255 nM

Binder: Rhodamine-DPQD[pY]LLLINCQD (reading uncertain) [Gab1 pY183 phosphopeptide, rhodamine-labelled]
- Kd [4]: 2040 nM
- Kd [2]: 4260 nM
- Kd [3]: 3790 nM

Binder: NNYV[pY]IDPTQLPD [KIT pY570 phosphopeptide, dye-free]
- Kd [5]: 1360 nM

B1: ErbB4pY1208 phosphopeptide, unlabeled competitor (peptide)
peptide: NEPL[pY]LNTFANTD
notes: human ErbB4 around Tyr1208; source: synthetic peptide
- Ki (GRB2 SH2 domain): 6850 nM

Binder: Rhodamine-NNYV[pY]IDPTQLPD (reading uncertain) [KIT pY570 phosphopeptide, rhodamine-labelled]
- Kd [4]: 3830 nM

B2: ErbB3pY1289 phosphopeptide, rhodamine-labelled (peptide)
peptide: rhodamine-SEQG[pY]EEMRAFQD
modifications: reading uncertain
notes: human ErbB3 around Tyr1289; also called labeled peptide 7; source: synthetic peptide
- Kd (PTK6 SH2 domain [6]): 2110 nM

Binder: QEAN[pY]VPMTPGTD [Gab1 pY472 phosphopeptide, dye-free]
- Kd [7]: 251 nM
- Kd [1]: 18 nM

Binder: FGTV[pY]KGIWIPD [ErbB2-pY735 phosphopeptide, unlabeled competitor]
- IC50 (PTK6 SH2 domain [8]): 148000 nM

Binder: rhodamine-FGCV[pY]HGTLLDND (reading uncertain) [MET pY1093 phosphopeptide, rhodamine-labelled]
- Kd [3]: 2560 nM

Binder: FGCV[pY]HGTLLDN [MET pY1093 phosphopeptide, dye-free]
- Kd [1]: 3550 nM

Binder: Rhodamine-FGTV[pY]KGIWIPD (reading uncertain) [ErbB2-pY735 phosphopeptide, rhodamine-labelled]
- Kd (PTK6 SH2 domain [9]): ≥ 20000 nM

Binder: DPQD[pY]LLLINCQD [Gab1 pY183 phosphopeptide, dye-free]
- Kd [5]: 146 nM
- Kd [7]: 722 nM
- Kd [1]: 137 nM

B3: ErbB3pY1260 phosphopeptide, unlabeled competitor (peptide)
peptide: PDED[pY]EYMNRQRD
notes: human ErbB3 around Tyr1260; source: synthetic peptide
- Ki (GRB7 SH2 domain): 131 nM

B4: ErbB3pY1197 phosphopeptide, unlabeled competitor (peptide)
peptide: EDEE[pY]EYMNRRRD
notes: human ErbB3 around Tyr1197; source: synthetic peptide
- Ki (GRB7 SH2 domain): 113 nM

B5: ErbB2pY1139 phosphopeptide, unlabeled competitor (peptide)
peptide: PQPE[pY]VNQPDVRD
notes: human ErbB2 around Tyr1139; source: synthetic peptide
- Ki (GRB2 SH2 domain): 1710 nM
